{"source": "patent US20240165163A1", "biological_target": "human CD19 (human) (UniProt P15391)", "sequence (P15391 20-556)": "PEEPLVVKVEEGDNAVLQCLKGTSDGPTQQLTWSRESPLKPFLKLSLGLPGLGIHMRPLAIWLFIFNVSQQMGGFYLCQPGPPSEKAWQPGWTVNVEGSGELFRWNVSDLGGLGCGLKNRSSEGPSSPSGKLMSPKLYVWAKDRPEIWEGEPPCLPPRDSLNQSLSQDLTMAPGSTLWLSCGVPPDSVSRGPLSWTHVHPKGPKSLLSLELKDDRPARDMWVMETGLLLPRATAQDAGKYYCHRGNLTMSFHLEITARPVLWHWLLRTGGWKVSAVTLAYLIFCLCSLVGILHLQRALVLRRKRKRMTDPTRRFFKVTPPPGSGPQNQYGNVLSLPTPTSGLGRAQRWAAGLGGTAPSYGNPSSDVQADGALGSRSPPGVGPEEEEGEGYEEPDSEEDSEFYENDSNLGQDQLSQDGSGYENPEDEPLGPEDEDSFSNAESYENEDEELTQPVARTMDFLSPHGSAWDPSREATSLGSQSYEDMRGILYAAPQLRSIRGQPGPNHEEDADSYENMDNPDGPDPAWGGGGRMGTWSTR", "experiment": "cell-based or functional assay", "data": [{"substance": "antiCD19scFv-CD8Hinge2-Notch1TMD-Notch2STS-truncCD28delTPRRP-CD3z-Gal4VP64 (receptor)", "values": [{"measurement": "Circuit Expression (inducible BFP reporter)", "value": "> 80", "unit": "%"}]}]}
